Data published in paper PMC2680933.

Columns and labels:
Assay in all cases: FRET or BRET
III3(D838G)-FRET = target: III3(D838G)-FRET
III3(V798D)-FRET = target: III3(V798D)-FRET
III3(V834D)-FRET = target: III3(V834D)-FRET
[1] = target: III3-FRET (III3 flanked by mYPet and mECFP*)

FRET efficiency of the construct with anastellin (0.18 without) (III3(D838G)-FRET): 0.27
Kd (III3(D838G)-FRET): 490 nM
half time of binding (III3(D838G)-FRET): 60 s
FRET efficiency of the construct with anastellin (0.21 without) (III3(V798D)-FRET): 0.28
Kd (III3(V798D)-FRET): 180 nM
half time of binding (III3(V798D)-FRET): < 1 s
FRET efficiency of the construct with anastellin (0.21 without) (III3(V834D)-FRET): 0.27
Kd (III3(V834D)-FRET): < 50 nM
half time of binding (III3(V834D)-FRET): < 1 s
FRET efficiency of the construct with anastellin (0.19 without) [1]: 0.28
Kd [1]: 210 nM
first order rate constant of binding [1]: 0.02 s⁻¹
half time of binding [1]: 30 s
Substance: anastellin (domain or fragment)
